The text below walks through data of patent US20240115706A1 (LG CHEM, published 2024).

The target in test [1] is T1, monkey GUCY2C-rCD4 fusion protein (Macaca fascicularis (crab-eating …, limits assumed)).
T1 construct: Prepared by the same method as the human antigen; also called Cy-GUCY2C-rCD4; monkey GUCY2C recombinant antigen
T1 chain: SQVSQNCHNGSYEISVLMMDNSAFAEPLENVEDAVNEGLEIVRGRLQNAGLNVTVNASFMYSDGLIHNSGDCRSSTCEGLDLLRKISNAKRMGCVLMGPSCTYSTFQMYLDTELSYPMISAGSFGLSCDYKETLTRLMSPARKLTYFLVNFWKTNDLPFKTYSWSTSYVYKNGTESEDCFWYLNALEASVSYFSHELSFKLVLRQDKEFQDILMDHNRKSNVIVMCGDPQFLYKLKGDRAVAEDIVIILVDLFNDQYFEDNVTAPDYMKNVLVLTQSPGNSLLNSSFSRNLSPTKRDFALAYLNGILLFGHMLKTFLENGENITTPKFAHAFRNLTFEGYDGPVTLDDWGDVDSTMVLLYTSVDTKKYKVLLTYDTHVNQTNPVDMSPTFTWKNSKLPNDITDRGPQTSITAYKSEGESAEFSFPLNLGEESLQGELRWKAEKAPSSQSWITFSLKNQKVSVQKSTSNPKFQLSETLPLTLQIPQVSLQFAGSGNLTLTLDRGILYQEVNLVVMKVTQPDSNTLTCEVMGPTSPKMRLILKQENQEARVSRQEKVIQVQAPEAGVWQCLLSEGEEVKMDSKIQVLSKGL
Nature of the test: ELISA (DELFIA), antigen on streptavidin plate, scFv culture solution, Eu-anti-tag Ab. Here is the method:
(§1) More specifically, GUCY2C-rCD4 fusion protein, in which the prepared human GUCY2C (SEQ ID NO: 112), monkey GUCY2C (SEQ ID NO: 114), and mouse GUCY2C (SEQ ID NO: 113) were fused, respectively, was bound to a place coated with streptavidin in a Nunc Maxisorp™96 well plate. After removing all the synthetic proteins not combined with washing buffer, the anti-GUCY2C scFV obtained in the culture solution was incubated in each well. After that, the affinity was measured by reading signals DELFIA enhanced using Eu-anti-tag Ab.
On the technique in general: An ELISA detects its analyte on a solid surface through an enzyme-linked reagent.

In test [2] the target is T2, human GUCY2C-rCD4 fusion protein (Homo sapiens (human); Rattus norvegicus, biotinylated (site not given)).
T2 construct: GUCY2C conjugated/fused with CD4; also called Hu-GUCY2C-rCD4; human GUCY2C recombinant antigen
Described as above. Here is the method:
as §1

In test [3] the target is T2, human GUCY2C-rCD4 fusion protein. Nature of the test: SPR (Sierra SPR-32), scFv on protein G, antigen 800-12.5 nM, 25 C. On the procedure:
Furthermore, the affinity to the GUCY2C antigen of the 18 kinds of scFvs produced in Example 1 was measured by SPR (Surface plasmon resonance) analysis.
SPR assay was performed with association time 2 min and dissociation time 10 min under the condition of 25 degrees of Celsius using MASS2 (Sierra SPR-32; Bruker). The data were analyzed with Software R3.

Test [4] has the same target. Kind of test: ranking ELISA (DELFIA), 5 nM scFv on anti-FLAG, biotinylated antigen, streptavidin-Eu. On the procedure: (§2) More specifically, after coating an anti-FLAG antibody in a MaxiSorb plate and binding by adding scFvs obtained previously, the remaining scFvs were removed by a washing process. Here, a biotinylated human-GUCY2C-rCD4 protein was incubated and combined, and then the affinity to the antigen was measured by reading signals by DELFIA enhancement with color development through streptavidin-Europlum.

Test [5] has the same target. Nature of the test: ranking ELISA (DELFIA), 50 nM scFv on anti-FLAG, biotinylated antigen, streptavidin-Eu. On the procedure: as §2

B1: scFv C01 (scFv)
scFv: QMQLVQSGAEVKKPGSSVKVSCKASGGTFSSYAISWVRQAPGQGLEWMGGIIPIFGTANYAQKFQGRVTITADESTSTAYMELSSLRSEDTAVYYCVRGYSSIYYYYGMDVWGQGTMVTVSSGGGGSGGGGSGGGASQSGLTQPRSVSGSPGQSVTISCTGTSSDVGGYNYVSWYQQHPGKAPKLMIYDVSKRPSGVSDRFSGSKSGNTASLTISGLQAEDEADYYCGSYTSDGTLVFGGGTKLTVL
notes: also called 2437_02_H05
For B1, the “Binding ELISA signal” value in test [1] was found to be 21600; in test [2], 37500. In addition, binding in test [3] was characterised by a dissociation constant (Kd) of 1150 nM. For the same molecule, the “Affinity Ranking ELISA (5 nM) signal” value in test [4] is 3090. Moreover, in test [5], the “Affinity Ranking ELISA (50 nM) signal” value was determined as 29500.

B2: scFv A03 (scFv)
scFv: QVQLVQSGAEVKKPGSSVKVSCKASGGTFSSYTISWVRQAPGQELEWMGRIIPILGIANYAQKFQGRVTITADKSTSTAYMELSSLRSEDTAVYYCARDYSSSWNSMDVWGQGTLVTVSSGGGGSGGGGSGGGASQSGLTQPPSASGSPGQSVTISCTGTSSDIGYYHYVSWYQQHPGKAPKLMIYEDSKRPSGISNRFSGSKSGTTASLTVSGLQAEDEAHYYCSSFTSRSTWVFGGGTQLTVL
notes: also called 2427_01_A12
With B2, the “Binding ELISA signal” value in test [2] turned out to be 59200. For the same molecule, in test [3], binding was put at a Kd of 219 nM. Moreover, the “Affinity Ranking ELISA (5 nM) signal” value in test [4] stood at 36000. Further, in test [5], the “Affinity Ranking ELISA (50 nM) signal” value was 199000.

B3: scFv A12 (scFv)
scFv: EVQLVQPGAEVKKPGSSVKVSCKASGGTLSSYAISWVRQAPGQGLEWMGRIIPILGITNYAQKFQGRVTITADKSTSTAYMELSSLRSEDTAVYFCARDQRPASMDVWGQGTLVTVSSGGGGSGGGGSGGGASQSELTQPASVSGSPGQSITISCTGTSSDVGGYIYVSWYQQHPGKVPKLMIHDVSHRPSGVSNRFSGSRSGNTASLTISGLQAEDEADYFCSSYTSSNNYVFGTGTKVTVL
notes: also called 2433_01_G08
As to B3, the “Binding ELISA signal” value in test [2] came to 38200. Binding in test [3] was put at a Kd of 297 nM. In addition, in test [4], the “Affinity Ranking ELISA (5 nM) signal” value was 28100. In addition, the “Affinity Ranking ELISA (50 nM) signal” value in test [5] worked out at 151000.

B4: scFv A02 (scFv)
scFv: EVQLVQPGAEVKKPGSSVKVSCKASGGTLSSYAISWVRQAPGQGLEWMGRIIPILGITNYAQKFQGRVTITADKSTSTAYMELSSLRSEDTAVYFCARDQRPASMDVWGQGTLVTVSSGGGGSGGGGSGGGASQSELTQPASVSGSPGQSITISCTGTSSDVGGYIYVSWYQQHPGKVPKLMIHDVSHRPSGVSNRFSGSRSGNTASLTISGLQAEDEADYFCSSYAGSNNYVFGTGTKVTVL
notes: also called 2427_01_A08
Take B4: the “Binding ELISA signal” value in test [2] worked out at 48300. Besides, the Kd (commonly the concentration at which binding is half-saturated) in test [3] worked out at 743 nM. The “Affinity Ranking ELISA (5 nM) signal” value in test [4] was 33400. Moreover, in test [5], the “Affinity Ranking ELISA (50 nM) signal” value came out at 168000.

B5: scFv A04 (scFv)
scFv: EVQLVQPGAEVKKPGSSVKVSCKASGGTLSSYAISWVRQAPGQGLEWMGRIIPILGITNYAQKFQGRVTITADKSTSTAYMELSSLRSEDTAVYFCARDQRPASMDVWGQGTLVTVSSGGGGSGGGGSGGGASQSELTQPASVSGSPGQSITISCTGTSSDVGGYIYVSWYQQHPGKVPKLMIHDVSHRPSGVSNRFSGSRSGNTASLTISGLQAEDEADYFCSSYTSSNNYYFGTGTKVTVL
notes: also called 2427_01_B02
Consider B5, for which the “Binding ELISA signal” value in test [2] stood at 51000. Binding in test [3] was characterised by a dissociation constant (Kd) of 311 nM. The “Affinity Ranking ELISA (5 nM) signal” value in test [4] worked out at 30400. Besides, the “Affinity Ranking ELISA (50 nM) signal” value in test [5] is 173000.

B6: scFv B10 (scFv)
scFv: EVQLVQSGAEVKKPGSSVKVSCKASGGTFSSYAISWVRQAPGQGLEWMGGIIPIFGTANYAQKFQGRVTITADKSTSTAYMELSSLRSEDTAVYYCARGHYYYMDVWGQGTTVTVSSGGGGSGGGGSGGGASDIVMTQSPATLSVSPGEGATLSCRASQSVSSNLAWYQQKPGRAPRLLIYGASTRATGIPARFSGSGSGTEFTLTISSLQSEDFAVYYCQQYNNWPTFGGGTKLEIK
notes: also called 2436_02_G01
As to B6, the “Binding ELISA signal” value in test [2] was 34400. Besides, the Kd in test [3] came to 2860 nM. For the same molecule, the “Affinity Ranking ELISA (5 nM) signal” value in test [4] was 12500. For the same molecule, the “Affinity Ranking ELISA (50 nM) signal” value in test [5] is 105000.

B7: scFv C02 (scFv)
scFv: QVQLVQSGAEVKKPGSSVKVSCKASGGTFSSYTISWVRQAPGQGLEWMGRIIPILGIANYAQKFQGRVTITADKSTSTAYMELSSLRSEDTAVYYCARDRSYNWLDPWGRGTLVTVSSGGGGSGGGGSGGGASQSALTQPVSVSGSPGQSITISCTGTISDVGDYNYVSWYQQHPGKAPKLMIYDVNNRPSGVSNRFSGSKSGNTASLTISGLQAEDEADYYCSSYTSSSTLVFGGGTKLTVL
notes: also called 2437_02_H08
Take B7: the “Binding ELISA signal” value in test [1] turned out to be 32300; in test [2], 49500. In test [3], this molecule came in with a Kd of 1480 nM. Also, the “Affinity Ranking ELISA (5 nM) signal” value in test [4] amounted to 11000. Further, the “Affinity Ranking ELISA (50 nM) signal” value in test [5] came to 86300.

B8: scFv A05 (scFv)
scFv: QVQLVQSGAEVKKPGSSVKVSCKASGGTFSSYTITWVRQAPGQGLEWMGRIIPVLGIANYAQKFQGRVTITADKSTSTAYMELSSLRSEDTAVYYCARDYSSSWNSMDVWGQGTLVTVSSGGGGSGGGGSGGGASQSGLTQPRSVSGSPGQSVTISCTGTSSDVGGYNYVSWYQQHPGKAPKLMIYDVSKRPSGVPDRFSGSKSGNTASLTVSGLHAEDEADYYCSSYAGSNNFVFGTGTKVTVL
notes: also called 2427_01_B07
In the case of B8, in test [2], the “Binding ELISA signal” value stood at 43000. The Kd in test [3] came out at 4390 nM. Also, in test [4], the “Affinity Ranking ELISA (5 nM) signal” value is 18300. The “Affinity Ranking ELISA (50 nM) signal” value in test [5] is 131000.

B9: scFv A06 (scFv)
scFv: QVQLVQSGAEVKKPGSSVKVSCKASGGTFGSYTISWVRQAPGQGLEWMGRIIPILGIANYAQKFQGRVTITADKSTSTAYMELSSLRSEDTAVYYCARDYSSSWNSMDVWGQGTLVTVSSGGGGSGGGGSGGGASQSGLTQPRSVSGSPGQSVTISCTGTSSDVGAYNYVSWYQQHPGKAPKLMIYEVSKRPSGVPDRFSASKSGNTASLTVSGLQAEDEADYYCSSYAGSNNWVFGGGTKLTVL
notes: also called 2427_01_C01
Consider B9, for which the “Binding ELISA signal” value in test [2] is 63100. Further, in test [3], the Kd turned out to be 716 nM. Moreover, the “Affinity Ranking ELISA (5 nM) signal” value in test [4] was 35100. In addition, the “Affinity Ranking ELISA (50 nM) signal” value in test [5] was found to be 185000.

B10: scFv B07 (scFv)
scFv: EVQLVQSGAEVKRPGSSVKVSCKASGYTFTSYYMHWVRQAPGQGLEWMGIINPSGGSTSYAQKFQGRVTMTRDTSTSTVYMELSSLRSEDTAVYYCAAGTYSSGWTIDYWGQGTTVTVSSGGGGSGGGGSGGGASDIVMTQSPLSLPVTLGQPASISCRSSQSLVYTDGNTYLNWFQQRPGQSPRRLIYKVSNRDSGVPDRFSGSGSGTDFTLKISRVEAEDVGIYYCMHSKQWPPTFGGGTKVEIK
notes: also called 2436_02_F10
For B10, the “Binding ELISA signal” value in test [2] is 68600. Besides, binding in test [3] was put at a Kd of 293 nM. In test [4], the “Affinity Ranking ELISA (5 nM) signal” value came to 25900. Also, the “Affinity Ranking ELISA (50 nM) signal” value in test [5] came to 139000.
